Where two headings read alike, the source gives them in different places.
How the values were obtained:
Test in all cases: EMSA
[1] = target: T1, Dmp1 (Dmtf1) (UniProt Q8CE22 1-761)
T1 sequence: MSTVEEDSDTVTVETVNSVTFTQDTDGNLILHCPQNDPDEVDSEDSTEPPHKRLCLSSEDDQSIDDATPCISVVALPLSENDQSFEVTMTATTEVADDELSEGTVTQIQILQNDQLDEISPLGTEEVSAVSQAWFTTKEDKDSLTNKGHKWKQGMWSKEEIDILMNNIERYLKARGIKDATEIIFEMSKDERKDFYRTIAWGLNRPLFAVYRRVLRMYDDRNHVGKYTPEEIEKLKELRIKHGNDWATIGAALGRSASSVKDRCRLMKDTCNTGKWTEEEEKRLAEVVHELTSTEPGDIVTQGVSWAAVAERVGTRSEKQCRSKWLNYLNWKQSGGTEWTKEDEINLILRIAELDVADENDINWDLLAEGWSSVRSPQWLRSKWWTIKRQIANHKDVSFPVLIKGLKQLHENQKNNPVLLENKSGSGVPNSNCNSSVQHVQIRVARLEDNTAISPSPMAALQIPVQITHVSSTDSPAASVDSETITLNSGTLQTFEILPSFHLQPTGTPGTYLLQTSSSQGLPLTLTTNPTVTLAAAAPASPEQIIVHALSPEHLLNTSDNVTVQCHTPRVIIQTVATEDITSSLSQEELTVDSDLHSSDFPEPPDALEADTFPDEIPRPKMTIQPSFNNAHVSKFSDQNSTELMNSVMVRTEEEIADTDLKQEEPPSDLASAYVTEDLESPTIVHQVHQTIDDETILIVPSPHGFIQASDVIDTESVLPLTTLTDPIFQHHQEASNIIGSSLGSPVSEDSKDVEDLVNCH

[2] = target: T1, Dmp1 (Dmtf1); remark: listed apart in the source
[3] = target: T1, Dmp1 (Dmtf1); remark: listed apart in the source
[4] = target: T1, Dmp1 (Dmtf1); remark: listed apart in the source
[5] = target: T1, Dmp1 (Dmtf1); remark: listed apart in the source

B1: JunB#1 (dsDNA)
DNA 1: TTTTTTTCTTCCAAGCTGGGCGGATGGAGGGAGAAGATTG
DNA 2: CAATCTTCTCCCTCCATCCGCCCAGCTTGGAAGAAAAAAA
binding result [1]: binds

B2: JunB#2 (control) (dsDNA)
DNA 1: TTTGAGCCCTGGGAGCCATCCGAGCGGCTTTCAACAGACC
DNA 2: GGTCTGTTGAAAGCCGCTCGGATGGCTCCCAGGGCTCAAA
binding result [1]: no binding

B3: Areg#2 (dsDNA)
DNA 1: TTTGCTCAGGTGAGCATCCGCCACCTCTCAGG
DNA 2: CCTGAGAGGTGGCGGATGCTCACCTGAGCAAA
binding result [2]: binds

B4: Tsp-1#1 (dsDNA)
DNA 1: TTTCAGAGCCTGCGTATGTTATAACG
DNA 2: CGTTATAACATACGCAGGCTCTGAAA
binding result [3]: binds

B5: Areg#1 (dsDNA)
DNA 1: TTTACCCCAGAACGGGATGGGGAGCAT
DNA 2: ATGCTCCCCATCCCGTTCTGGGGTAAA
binding result [4]: binds

B6: Egr1#1 (dsDNA)
DNA 1: TTTAAAACGAAGGTGGAGGCGGATGGAGAGAGAGAGAGAGAG
DNA 2: CTCTCTCTCTCTCTCTCCATCCGCCTCCACCTTCGTTTTAAA
binding result [5]: binds

— article PMC2836939
